According to patent US20230060388A1:

Assays:
[1] = molecular target: recombinant human TIGIT extracellular domain (ECD) (human) (UniProt Q495A1); experiment: ELISA on recombinant human TIGIT ECD
[2] = molecular target: human TIGIT expressed on cells (stably transfected Jurkat cells) (human) (UniProt Q495A1); experiment: flow cytometry on h-TIGIT transfected Jurkat cells (whole cell binding), Alexa Fluor 488; representative of three experiments
[3] = molecular target: human TIGIT expressed on cells (stably transfected Jurkat cells) (human) (UniProt Q495A1); experiment: whole cell binding, flow cytometry, n=3 (FIG. 10A)
[4] = molecular target: human TIGIT expressed on cells (stably transfected Jurkat cells) (human) (UniProt Q495A1); experiment: cell-based or functional assay
[5] = molecular target: recombinant cynomolgus TIGIT (cynomolgus monkey); experiment: ELISA on recombinant cyno-TIGIT
[6] = molecular target: recombinant mouse TIGIT (mouse) (UniProt P86176); experiment: ELISA on recombinant mouse-TIGIT
Chain of recombinant mouse TIGIT (mouse) (P86176 29-148 limits assumed): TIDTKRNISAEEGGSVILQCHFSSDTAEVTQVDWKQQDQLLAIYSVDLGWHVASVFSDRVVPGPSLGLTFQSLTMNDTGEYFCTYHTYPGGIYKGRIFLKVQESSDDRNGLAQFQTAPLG

Chain of human TIGIT expressed on cells (stably transfected Jurkat cells) (human) (Q495A1 22-244 limits assumed): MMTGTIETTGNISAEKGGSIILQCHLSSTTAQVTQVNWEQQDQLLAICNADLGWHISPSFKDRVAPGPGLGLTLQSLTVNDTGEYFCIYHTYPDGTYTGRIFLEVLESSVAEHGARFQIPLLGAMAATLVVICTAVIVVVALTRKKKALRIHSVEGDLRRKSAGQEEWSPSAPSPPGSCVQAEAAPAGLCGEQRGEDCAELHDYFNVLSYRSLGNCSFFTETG
Chain of recombinant human TIGIT extracellular domain (ECD) (human) (Q495A1 22-138 limits assumed): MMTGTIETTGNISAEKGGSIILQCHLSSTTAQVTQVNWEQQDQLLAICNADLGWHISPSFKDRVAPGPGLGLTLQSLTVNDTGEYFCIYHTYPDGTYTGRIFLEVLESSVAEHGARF

| EC50 (read off the curve) [1] [µg/mL] | EC50 (read off the curve) [2] [nM] | EC50 [3] [nM] | EC50, NFAT luciferase reporter assay (n=3) [4] [nM] | EC50 (read off the curve) [5] [µg/mL] | EC50 (read off the curve) [6] [µg/mL] | Substance |
| --- | --- | --- | --- | --- | --- | --- |
| 0.1 | 0.5 | 0.61 | 0.72 | 0.1 | – | Reference Ab 2 (same amino acid sequences as Tiragolumab) (antibody) |
| – | – | – | – | – | 0.08 | anti-mouse TIGIT reference antibody (Biolegend #142101) |
